The target in series [1] is RNAP core (Mtb);sigmaA;CarD;RbpA (Mycobacterium …, UniProt P9WGZ1;P9WGY9;P9WGY7;P9WGY5;P9WGI1;P9WJG3;P9WHJ5 …, L7M|||). The series can be described thus: cryo-EM.
The target in series [2] is RNAP core (Mtb);sigmaA;CarD;RbpA;WhiB7 (Mycobacterium …, UniProt P9WGZ1;P9WGY9;P9WGY7;P9WGY5;P9WGI1;P9WJG3;P9WHJ5;Q6MX01 …, L7M||||). The series can be described thus: cryo-EM.

B1: whiB7 promoter (-70 to +30) (dsDNA)
DNA 1: CTGTACCGGCAAACGCGCAGGTCAGAAAATCGGTTGTGGTCAGCTGCTGCCACCGGTTAACCTCCAGGTCGCATTCTGCTGCCAGCCTGGAGATGGCATT
DNA 2: AATGCCATCTCCAGGCTGGCAGCAGAATGCGACCTGGAGGTTAACCGGTGGCAGCAGCTGACCACAACCGATTTTCTGACCTGCGCGTTTGCCGGTACAG
B1: the binding result in series [1] and in series [2] was “binds” in each case.
